Consider one molecule from patent publication US20080292632A1 (US Dept. of Health and Human Services, published 2008).

For experiment [1], the target named is T1, IRTA2 extracellular domain-Fc fusion protein (human, UniProt Q96RD9 16-851).
T1 construct: extracellular domain; also called IRTA2-Fc; IRTA2-HFc; not shown: human IgG1 hinge and Fc
T1 sequence (looked up): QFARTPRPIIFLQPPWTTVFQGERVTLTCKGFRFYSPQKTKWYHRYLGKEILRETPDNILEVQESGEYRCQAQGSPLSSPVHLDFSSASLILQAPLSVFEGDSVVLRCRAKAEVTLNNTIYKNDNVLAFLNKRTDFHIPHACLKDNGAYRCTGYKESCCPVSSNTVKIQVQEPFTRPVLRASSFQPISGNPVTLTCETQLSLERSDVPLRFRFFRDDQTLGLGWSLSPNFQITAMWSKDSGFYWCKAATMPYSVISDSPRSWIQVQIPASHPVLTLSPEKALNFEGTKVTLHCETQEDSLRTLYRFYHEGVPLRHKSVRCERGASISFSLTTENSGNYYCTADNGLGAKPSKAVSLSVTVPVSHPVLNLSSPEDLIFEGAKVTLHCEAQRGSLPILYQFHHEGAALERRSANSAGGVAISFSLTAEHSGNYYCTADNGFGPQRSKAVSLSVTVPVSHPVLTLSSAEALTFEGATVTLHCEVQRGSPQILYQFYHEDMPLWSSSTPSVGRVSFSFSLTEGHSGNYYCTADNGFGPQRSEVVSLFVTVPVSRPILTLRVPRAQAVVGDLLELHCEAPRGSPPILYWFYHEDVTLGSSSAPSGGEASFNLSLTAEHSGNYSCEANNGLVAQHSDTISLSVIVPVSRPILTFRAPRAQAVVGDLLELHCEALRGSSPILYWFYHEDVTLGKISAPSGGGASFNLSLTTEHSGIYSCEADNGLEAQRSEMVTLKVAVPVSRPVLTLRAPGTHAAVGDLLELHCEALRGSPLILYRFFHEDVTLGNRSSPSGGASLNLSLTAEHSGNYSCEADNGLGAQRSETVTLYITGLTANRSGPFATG
Nature of the experiment: equilibrium ELISA (Friguet). The protocol:
(§1) ELISA. In a typical indirect ELISA for the screening of hybridomas, microtiter plates (MaxiSorp; Nalge Nunc, Rochester, N.Y.) were coated with 100 ng/50 μl/well of goat anti-human IgG in phosphate buffered saline (PBS) for 2 hours at room temperature. Next, 50 ng/100 μl/well of IRTA2-Fc in blocking buffer (25% DMEM, 5% FBS, 25 mM HEPES, 0.5% bovine serum albumin, 0.1% sodium azide in PBS) was added to each well and incubated for 2 hours at room temperature. After washing with PBS containing 0.05% Tween 20, 50 μl of the hybridoma supernatants were added and incubated for 2 hours at room temperature. After washing, the bound MAbs were detected by a 2-hour incubation with horseradish peroxidase (HRP)-labeled goat anti-mouse IgG (Jackson ImmunoResearch, Grove, Pa.) followed by tetramethylbenzidine (TMB) substrate kit (Pierce, Rockford, Ill.). In some experiments, other IRTA-Fc fusion proteins were used instead of IRTA2-Fc.
(§2) Affinity Determination. Affinities (dissociation constant, Kd) of the anti-IRTA2 MAbs to IRTA2-Fc were determined by ELISA as previously described (Friguet et al., J Immunol Methods 77:305-19, 1985). Briefly, each MAb was incubated with various concentrations of IRTA2-Fc at room temperature for 20 hours to reach equilibrium; then the amount of MAb that remains unbound at equilibrium was measured by the indirect ELISA as described above.
A general note: In an ELISA, binding on a coated surface is turned into a signal by an enzyme label.

For experiment [2], the target named is T1, IRTA2 extracellular domain-Fc fusion …. Nature of the experiment: equilibrium ELISA (Friguet). The protocol:
as §1, §2
The source holds these as a separate data set.

Experiment [3] concerns the target T2, CD30 on transfected 293T cells (human, UniProt P28908 19-595).
T2 construct: whole, on cells
T2 sequence (looked up): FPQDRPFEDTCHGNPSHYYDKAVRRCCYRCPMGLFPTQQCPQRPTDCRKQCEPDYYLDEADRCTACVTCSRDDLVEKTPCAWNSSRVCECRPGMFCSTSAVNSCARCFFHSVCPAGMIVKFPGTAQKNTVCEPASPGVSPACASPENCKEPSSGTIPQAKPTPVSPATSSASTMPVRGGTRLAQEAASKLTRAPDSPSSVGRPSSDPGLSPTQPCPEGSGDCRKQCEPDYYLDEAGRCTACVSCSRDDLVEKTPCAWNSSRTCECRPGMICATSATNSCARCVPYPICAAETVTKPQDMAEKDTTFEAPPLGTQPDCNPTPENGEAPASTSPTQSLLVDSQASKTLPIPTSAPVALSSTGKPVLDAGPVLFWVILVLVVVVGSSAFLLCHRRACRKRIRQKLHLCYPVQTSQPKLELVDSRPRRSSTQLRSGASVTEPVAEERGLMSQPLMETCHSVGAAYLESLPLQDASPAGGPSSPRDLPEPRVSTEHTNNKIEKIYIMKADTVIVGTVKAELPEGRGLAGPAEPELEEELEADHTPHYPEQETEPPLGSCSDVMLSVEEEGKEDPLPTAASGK
Nature of the experiment: cell-ELISA, formalin-fixed cells. The protocol: Cell-ELISA. […] After overnight culture, the cells were fixed with 3.7% formalin in the culture medium at room temperature overnight. Incubation with a dilution of MAbs, secondary antibody and substrate was performed as described in the ELISA protocol except that 1% FBS in PBS was used for washing.

Read-outs that look alike come from different tables or passages of the source.

B1: F25 (antibody, IgG2a, V domains shown)
VH: EVQLQQSGPELVKPGTSVKMSCKASGYSFTGYFMNWMMQNHGKSLEWIGRINLYNGDTFYNQKFKDKATLTVDKSSNTVHMEFRSLASEDSAVYYCASSLYYFDYWGQGTTFTVSS
VL: DIVMTQSHKFMSTSVGDRVNITCKASQDVGTNVAWYQQKPGQSPKLLIYWASTRQTGVPDRFTGSGSGTDFTLTISNVQSEDLSDYFCQQYSSYPLTFGAGTKLELKR
notes: mouse hybridoma MAb, IgG2a, kappa; also called MAb F25; biotin-MAb F25
In general, Kd refers to the constant that tells how readily two partners part at equilibrium. With B1, the Kd in experiment [1] and in experiment [2] was 1.2 nM each time. Besides, the binding result in experiment [3] is “no binding (tested: ’0.2)”.
